Test results published in patent US20250215071A1, “Novel Mcl-1 inhibitor and combination of Mcl-1 and a BH3 mimetic, such as a Bcl-2 inhibitor” (NETRIS PHARMA, priority 2022, published 2025).

Tests used:
human Mcl-1 = assay: In vivo Mcl-1 degradation in EMT6 syngeneic breast cancer model (western blot); settings: EMT6 cells over-expressing human Mcl-1 in BALB/c mice; 20 mg/Kg i.v.; 8 hours after treatment; vs control mice (Iso-mAb)
Protocol: FIG. 7. Netrin-1 interference triggers Mcl-1 degradation in vitro and in vivo. (A,B): Netrin-1 silencing triggers Mcl-1 degradation. Breast cancer MCF7 cells were transfected with scramble (siCTRL) or netrin-1 (siNet) targeting siRNAs. 48 hours after transfection, cells were lysed by scraping and sonication in SDS-containing buffer. Protein levels of Mcl-1, netrin-1, and UNC5B, as well as B-actin and Ku80, used as housekeeping genes, were evaluated by western blot (A). Relative Mcl-1 protein levels, normalized to β-actin or Ku80, are shown in (B) (n=2, *** p<0.001, **** p<0.0001, ordinary two-way ANOVA with Sidak's multiple comparisons test). […] Protein levels of Mcl-1 were then evaluated by western blot (C). […] Mcl-1 protein was quantified in paraffin-embedded slices on paired C1D1 and C3D1 biopsies and compared with clinical benefit (stable disease, SD, or progression disease, PD, at 6 weeks). Mcl-1 intensity was assessed in all, PD or SD biopsies (E) (n=6, Wilcoxon test). […]
For immunoblotting analysis, cells were lysed by sonication in SDS buffer (10 mM Tris-HCl pH 7.4, 10% glycerol, 5% SDS, 1% TX-100, 100 mM DTT) in the presence of protease inhibitor cocktail (Roche Applied Science). […] Protein band quantification was performed with Image Lab 6.1 software (Bio-rad), considering the adjusted volume intensity normalized with housekeeping genes. […]

Mcl-1 = Mcl-1 immunohistochemistry on paired biopsies of phase I trial patients (NCT02977195); type: in vivo, human
Protocol: FIG. 7. Netrin-1 interference triggers Mcl-1 degradation in vitro and in vivo. (A,B): Netrin-1 silencing triggers Mcl-1 degradation. Breast cancer MCF7 cells were transfected with scramble (siCTRL) or netrin-1 (siNet) targeting siRNAs. 48 hours after transfection, cells were lysed by scraping and sonication in SDS-containing buffer. Protein levels of Mcl-1, netrin-1, and UNC5B, as well as B-actin and Ku80, used as housekeeping genes, were evaluated by western blot (A). Relative Mcl-1 protein levels, normalized to β-actin or Ku80, are shown in (B) (n=2, *** p<0.001, **** p<0.0001, ordinary two-way ANOVA with Sidak's multiple comparisons test). Activation of endogenous UNC5B upon netrin-1 silencing decreased Mcl-1 protein levels. Values are given as means±SEM. (C,D): Netrin-1 interference degrades Mcl-1 in a syngeneic breast cancer model. Stable EMT6 cells, constitutively over-expressing human Mcl-1, were engrafted in BALB/c mice. Once tumors reached a volume of 100 mm^3, mice were treated with Iso-mAb or NP137 antibodies and sacrificed 8 hours after treatment. Protein levels of Mcl-1 were then evaluated by western blot (C). […] Mcl-1 protein was quantified in paraffin-embedded slices on paired C1D1 and C3D1 biopsies and compared with clinical benefit (stable disease, SD, or progression disease, PD, at 6 weeks). Mcl-1 intensity was assessed in all, PD or SD biopsies (E) (n=6, Wilcoxon test). […]
The NP137 antibody is currently being assessed in several phase I and II clinical trials, in patients with advanced solid tumours. […] Mcl-1 presence was thus analysed by immunohistochemistry.
For histological examination of tumours engrafted in nude mice, ex vivo breast cancer slices, and from human clinical trial, tumours were fixed in 10% buffered formalin and embedded in paraffin. […] Quantification of caspase-3- and Mcl-1-positive cells was performed with HALO software and adapted algorithms cytonuclear v2.0.8 6 (Indica Labs, Albuquerque, NM, USA). MCL1 intensity, has been calculated in percentage over the surface of tumour cells. […]

B1: NP137: humanized anti-netrin-1 monoclonal antibody, VH SEQ ID NO: 22, VL SEQ ID NO: 16, human IgG1 (antibody, V domains shown)
VH: QVQLQQSGPGLVKPSQTLSLTCAISGYTFTSYNMHWVRQATGQGLEWMGAIYPGNGDTSYNQKFKGRLTISKDTSKNQVVLTMTNMDPVDTATYYCARGGTGFAYWGQG
VL: DIQMTQSPSSLSASVGDRVTITCKASQSVSNDVAWYQQKPGQAPRLLIYYASNRYTGIPPRFSGSGYGTDFTLTINNIESEDAAYYFCQQDYSSPWTFGQG
modifications: human IgG1 constant region; humanized variant; MISC_FEATURE - CDR according to IGMT
For B1, the “Mcl-1 protein levels in tumors” value (human Mcl-1) was “significantly reduced Mcl-1 protein levels”, the “patient tumours with reduced Mcl-1 levels” value (Mcl-1; all twelve patients, 14 mg/kg once every two weeks, C3D1 vs C1D1 biopsies) was “nine out of the twelve” and the “patients with Mcl-1 decrease” value (Mcl-1; six patients with progression disease (PD) at 6 weeks) was “three of the six”. For the same molecule, the “patients with Mcl-1 decrease” value (Mcl-1; six patients with stable disease (SD) at 6 weeks) was “six patients with SD showed Mcl-1 decrease”.
